The results in this text go back to PMC3940072 (Journal of molecular biology, 2013).

One data set concerns the target T1, KaiC-R468C (Synechococcus elongatus, UniProt Q79PF4 1-519, R468C).
T1 sequence: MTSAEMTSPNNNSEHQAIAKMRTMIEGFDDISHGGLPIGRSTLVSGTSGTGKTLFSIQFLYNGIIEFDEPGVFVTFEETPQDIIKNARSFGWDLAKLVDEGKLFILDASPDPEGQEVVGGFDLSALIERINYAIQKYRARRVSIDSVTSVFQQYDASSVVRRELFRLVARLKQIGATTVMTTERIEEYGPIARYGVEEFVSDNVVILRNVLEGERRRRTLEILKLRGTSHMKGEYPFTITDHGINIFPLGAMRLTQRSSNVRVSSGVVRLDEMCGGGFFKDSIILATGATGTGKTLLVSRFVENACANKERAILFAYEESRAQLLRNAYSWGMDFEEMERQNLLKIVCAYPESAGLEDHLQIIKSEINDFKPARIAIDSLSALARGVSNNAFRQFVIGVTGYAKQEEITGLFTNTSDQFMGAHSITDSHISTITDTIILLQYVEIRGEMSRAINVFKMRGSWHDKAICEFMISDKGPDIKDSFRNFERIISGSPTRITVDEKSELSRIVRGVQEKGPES
The data set is described as follows: native gel or EMSA. (In EMSA bound probe runs differently from free probe, usually more slowly.)

The data set “cryo-EM structure” concerns the molecule itself. The data set is described as follows: cryo-EM structure.

B1: wild-type Synechococcus elongatus KaiB (natural protein, UniProt Q79PF5 1-102, looked up)
chain: MSPRKTYILKLYVAGNTPNSVRALKTLKNILEVEFQGVYALKVIDVLKNPQLAEEDKILATPTLAKVLPLPVRRIIGDLSDREKVLIGLDLLYGELQDSDDF
As for B1, the binding result with KaiC-R468C is “binds”.

B2: KaiC-Δ489 (C-terminally truncated form of S. elongatus KaiC) (domain or fragment, Synechococcus elongatus, UniProt Q79PF4 1-489, looked up)
chain: MTSAEMTSPNNNSEHQAIAKMRTMIEGFDDISHGGLPIGRSTLVSGTSGTGKTLFSIQFLYNGIIEFDEPGVFVTFEETPQDIIKNARSFGWDLAKLVDEGKLFILDASPDPEGQEVVGGFDLSALIERINYAIQKYRARRVSIDSVTSVFQQYDASSVVRRELFRLVARLKQIGATTVMTTERIEEYGPIARYGVEEFVSDNVVILRNVLEGERRRRTLEILKLRGTSHMKGEYPFTITDHGINIFPLGAMRLTQRSSNVRVSSGVVRLDEMCGGGFFKDSIILATGATGTGKTLLVSRFVENACANKERAILFAYEESRAQLLRNAYSWGMDFEEMERQNLLKIVCAYPESAGLEDHLQIIKSEINDFKPARIAIDSLSALARGVSNNAFRQFVIGVTGYAKQEEITGLFTNTSDQFMGAHSITDSHISTITDTIILLQYVEIRGEMSRAINVFKMRGSWHDKAIREFMISDKGPDIKDSFRNFERI
modifications: persistently phosphorylated (hyper-phosphorylated); sites not determined for this sample
B2: the stoichiometry N (as a rule, the number of molecules, sites or subunits per partner or assembly) in “cryo-EM structure” was found to be 6.
